According to PMC3305458, “E2F1 Mediated Apoptosis Induced by the DNA Damage Response Is Blocked by EBV Nuclear Antigen 3C in Lymphoblastoid Cells” (PLoS Pathogens, 2012):

Biological target: flag-tagged wild-type E2F1 (residues 1–437) (UniProt Q01094 1-437)
Assay: cell-based or functional assay

flag-tagged wild-type E2F1 (residues 1–437), sequence (Q01094 whole entry, the tested form may be a part): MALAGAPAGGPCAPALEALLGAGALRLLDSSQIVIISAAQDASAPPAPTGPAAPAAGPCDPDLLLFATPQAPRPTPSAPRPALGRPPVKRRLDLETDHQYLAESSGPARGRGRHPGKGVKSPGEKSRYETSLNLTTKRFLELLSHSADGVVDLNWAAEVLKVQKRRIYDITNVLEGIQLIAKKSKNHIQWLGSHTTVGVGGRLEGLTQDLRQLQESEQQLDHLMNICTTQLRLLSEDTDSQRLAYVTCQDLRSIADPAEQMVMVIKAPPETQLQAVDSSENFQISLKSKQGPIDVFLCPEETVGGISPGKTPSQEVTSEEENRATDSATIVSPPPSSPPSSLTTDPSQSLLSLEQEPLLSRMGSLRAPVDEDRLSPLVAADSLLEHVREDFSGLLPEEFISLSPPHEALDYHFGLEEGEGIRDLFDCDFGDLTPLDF

B1: myc-tagged EBNA3C (residues 1–992) (natural protein)
chain: MESFEGQGDSRQSPDNERGDNVQTTGEHDQDPGPGPPSSGASERLVPEESYSRDQQPWGQSRGDENRGWMQRIRRRRRRRAALSGHLLDTEDNVPPWLPPHDITPYTARNIRDAACRAVKQSHLQALSNLILDSGLDTQHILCFVMAARQRLQDIRRGPLVAEGGVGWRHWLLTSPSQSWPMGYRTATLRTLTPVPNRVGADSIMLTATFGCQNAARTLNTFSATVWTPPHAGPREQERYAREAEVRFLRGKWQRRYRRIYDLIELCGSLHHIWQNLLQTEENLLDFVRFMGVMSSCNNPAVNYWFHKTIGNFKPYYPWNAPPNENPYHARRGIKEHVIQNAFRKAQIQGLSMLATGGEPRGDATSETSSDEDTGRQGSDVELESSDDELPYIDPNMEPVQQRPVMFVSRVPAKKPRKLPWPTPKTHPVKRTNVKTSDRSDKAEAQSTPERPGPSEQSSVTVEPAHPTPVEMPMVILHQPPPVPKPVPVKPTPPPSRRRRGACVVYDDDVIEVIDVETTEDSSSVSQPNKPHRKHQDGFQRSGRRQKRAAPPTVSPSDTGPPAVGPPAAGPPAAGPPAAGPPAAGPPAAGPPAAGPRILAPLSAGPPAAGPHIVTPPSARPRIMAPPVVRMFMRERQLPQSTGRKPQCFWEMRAGREITQMQQEPSSHLQSATQPTTPRPSWAPSVCALSVMDAGKAQPIESSHLSSMSPTQPISHEEQPRYEDPDAPLDLSLHPDVAAQPAPQAPYQGYQEPPAPQAPYQGYQEPPPPQAPYQGYQEPPAHGLQSSSYPGYAGPWTPRSQHPCYRHPWAPWSQDPVHGHTQGPWDPRAPHLPPQWDGSAGHGQDQVSQFPHLQSETGPPRLQLSLVPLVSSSAPSWSSPQPRAPIRPIPTRFPPPPMPLQDSMAVGCDSSGTACPSMPFASDYSQGAFTPLDINATTPKRPRVEESSHGPARCSQATAEAQEILSDNSEISVFPKDAKQTDYDASTESELD
For B1, the “proliferation of G418-selected Saos-2 cells after serum starvation and 5 µM etoposide, counted for 6 days: E2F1 plus EBNA3C against E2F1 alone or E2F1 plus EBNA3C residues 366-620” value was about 4 fold.
